This is an account of results in patent US20230250154A1 (CYTONICS, published 2023).

Common to all, as to assay: cell-based or functional assay
One assay concerns the target T1, ADAMTS4 (human, UniProt O75173 213-685, limits assumed).
T1 sequence (looked up): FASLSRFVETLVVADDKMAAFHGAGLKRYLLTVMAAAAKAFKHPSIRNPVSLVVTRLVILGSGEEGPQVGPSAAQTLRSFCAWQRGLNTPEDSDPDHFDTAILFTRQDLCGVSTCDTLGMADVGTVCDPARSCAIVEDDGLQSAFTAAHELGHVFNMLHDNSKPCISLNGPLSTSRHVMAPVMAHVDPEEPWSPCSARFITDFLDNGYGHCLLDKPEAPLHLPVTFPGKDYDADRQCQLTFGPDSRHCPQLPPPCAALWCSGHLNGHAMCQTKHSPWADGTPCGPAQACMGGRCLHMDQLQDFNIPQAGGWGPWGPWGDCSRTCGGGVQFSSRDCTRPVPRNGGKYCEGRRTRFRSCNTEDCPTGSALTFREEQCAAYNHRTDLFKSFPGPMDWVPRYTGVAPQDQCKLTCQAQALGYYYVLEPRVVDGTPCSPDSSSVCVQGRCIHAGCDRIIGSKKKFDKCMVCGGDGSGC

In a further assay the target is T2, ADAMTS5 (human, UniProt Q9UNA0 262-622, limits assumed).
T2 sequence (looked up): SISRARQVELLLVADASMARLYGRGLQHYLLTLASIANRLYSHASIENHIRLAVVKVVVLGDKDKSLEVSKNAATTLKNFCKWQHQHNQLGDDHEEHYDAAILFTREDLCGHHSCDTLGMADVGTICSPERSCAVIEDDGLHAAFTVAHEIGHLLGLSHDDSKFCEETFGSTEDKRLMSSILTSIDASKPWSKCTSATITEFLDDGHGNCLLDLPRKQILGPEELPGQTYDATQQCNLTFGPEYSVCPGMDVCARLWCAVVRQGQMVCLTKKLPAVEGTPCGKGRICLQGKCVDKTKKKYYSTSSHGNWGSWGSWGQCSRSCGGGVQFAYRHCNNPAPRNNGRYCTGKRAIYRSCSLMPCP

In the next assay the target is MMP13 (human, UniProt P45452 104-471, limits assumed).

B1: Variant A2M, bait region SEQ ID NO 109 (other)
chain: SVSGKPQYMVLVPSLLHTETTEKGCVLLSYLNETVTVSASLESVRGNRSLFTDLEAENDVLHCVAFAVPKSSSNEEVMFLTVQVKGPTQEFKKRTTVMVKNEDSLVFVQTDKSIYKPGQTVKFRVVSMDENFHPLNELIPLVYIQDPKGNRIAQWQSFQLEGGLKQFSFPLSSEPFQGSYKVVVQKKSGGRTEHPFTVEEFVLPKFEVQVTVPKIITILEEEMNVSVCGLYTYGKPVPGHVTVSICRKYSDASDCHGEDSQAFCEKFSGQLNSHGCFYQQVKTKVFQLKRKEYEMKLHTEAQIQEEGTVVELTGRQSSEITRTITKLSFVKVDSHFRQGIPFFGQVRLVDGKGVPIPNKVIFIRGNEANYYSNATTDEHGLVQFSINTTNVMGTSLTVRVNYKDRSPCYGYQWVSEEHEEAHHTAYLVFSPSKSFVHLEPMSHELPCGHTQTVQAHYILNGGTLLGLKKLSFYYLIMAKGGIVRTGTHGLLVKQEDMKGHFSISIPVKSDIAPVARLLIYAVLPTGDVIGDSAKYDVENCLANKVDLSFSPSQSLPASHAHLRVTAAPQSVCALRAVDQSVLLMKPDAELSASSVYNLLPEKDLTGFPGPLNDQDDEDCINRHNVYINGITYTPVSSTNEKDMYSFLEDMGLKAFTNSKIRKPKMCPQLEPAGAARGESESEGGFFGFPIGERESTGGDRGLPIGENEAGGKLRKYFPETWIWDLVVVNSAGVAEVGVTVPDTITEWKAGAFCLSEDAGLGISSTASLRAFQPFFVELTMPYSVIRGEAFTLKATVLNYLPKCIRVSVQLEASPAFLAVPVEKEQAPHCICANGRQTVSWAVTPKSLGNVNFTVSAEALESQELCGTEVPSVPEHGRKDTVIKPLLVEPEGLEKETTFNSLLCPSGGEVSEELSLKLPPNVVEESARASVSVLGDILGSAMQNTQNLLQMPYGCGEQNMVLFAPNIYVLDYLNETQQLTPEIKSKAIGYLNTGYQRQLNYKHYDGSYSTFGERYGRNQGNTWLTAFVLKTFAQARAYIFIDEAHITQALIWLSQRQKDNGCFRSSGSLLNNAIKGGVEDEVTLSAYITIALLEIPLTVTHPVVRNALFCLESAWKTAQEGDHGSHVYTKALLAYAFALAGNQDKRKEVLKSLNEEAVKKDNSVHWERPQKPKAPVGHFYEPQAPSAEVEMTSYVLLAYLTAQPAPTSEDLTSATNIVKWITKQQNAQGGFSSTQDTVVALHALSKYGAATFTRTGKAAQVTIQSSGTFSSKFQVDNNNRLLLQQVSLPELPGEYSMKVTGEGCVYLQTSLKYNILPEKEEFPFALGVQTLPQTCDEPKAHTSFQISLSVSYTGSRSASNMAIVDVKMVSGFIPLKPTVKMLERSNHVSRTEVSSNHVLIYLDKVSNQTLSLFFTVLQDVPVRDLKPAIVKVYDYYETDEFAIAEYNAPCSKDLGNADYKDDDDKGASHHHHHH
Regarding B1, the “Protease Inhibition (% of WT)” value with ADAMTS4 was 112 % of WT; with ADAMTS5, 105 % of WT; with MMP13, 122 % of WT.
